Data on 1 molecule can be found in PMC4652773, “Functional significance of protein assemblies predicted by the crystal structure of the restriction endonuclease BsaWI”.

Assay in all cases: EMSA; 5 mM Ca2+; EMSA: 40 mM Tris-acetate pH 8.3, 0.1 mg/ml BSA, 10% glycerol, 5 mM CaCl2 or 0.1 mM EDTA, 1 nM DNA, room temperature, 15 min
Background: In EMSA bound probe runs differently from free probe, usually more slowly.

The target of series [1] is T1, BsaWI R259A (UniProt Q6UQ65 1-272, R259A).
T1 sequence: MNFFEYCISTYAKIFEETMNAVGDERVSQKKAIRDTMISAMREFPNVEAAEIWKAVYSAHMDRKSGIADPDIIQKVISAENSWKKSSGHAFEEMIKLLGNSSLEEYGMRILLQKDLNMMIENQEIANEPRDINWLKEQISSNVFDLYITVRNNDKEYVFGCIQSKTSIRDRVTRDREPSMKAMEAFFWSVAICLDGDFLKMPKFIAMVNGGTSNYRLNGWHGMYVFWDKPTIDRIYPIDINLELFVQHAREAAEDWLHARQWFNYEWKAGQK
The following applies: protein: recombinant; chain copies: 2; label: 33P; blunt.

Series [2] has as its target T2, BsaWI D145A (UniProt Q6UQ65 1-272, D145A).
T2 sequence: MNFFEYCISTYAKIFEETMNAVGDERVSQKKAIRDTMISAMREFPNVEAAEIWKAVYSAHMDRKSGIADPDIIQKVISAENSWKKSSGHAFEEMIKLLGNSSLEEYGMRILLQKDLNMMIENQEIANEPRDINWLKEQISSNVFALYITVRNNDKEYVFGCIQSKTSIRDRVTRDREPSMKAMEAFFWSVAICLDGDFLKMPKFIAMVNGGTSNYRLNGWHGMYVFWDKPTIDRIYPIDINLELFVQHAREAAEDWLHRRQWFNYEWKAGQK
Conditions: protein: recombinant; chain copies: 4; label: 33P; blunt.

Series [3] addresses T3, BsaWI W262A (UniProt Q6UQ65 1-272, W262A).
T3 sequence: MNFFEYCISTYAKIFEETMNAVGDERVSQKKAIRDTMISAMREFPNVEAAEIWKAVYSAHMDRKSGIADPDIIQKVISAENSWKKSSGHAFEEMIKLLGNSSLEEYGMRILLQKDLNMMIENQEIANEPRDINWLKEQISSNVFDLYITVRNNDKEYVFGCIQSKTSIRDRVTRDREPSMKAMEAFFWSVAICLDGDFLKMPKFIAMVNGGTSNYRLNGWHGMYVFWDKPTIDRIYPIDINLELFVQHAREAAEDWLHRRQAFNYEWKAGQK
The following applies: protein: recombinant; chain copies: 2; label: 33P; blunt.

The target of series [4] is T4, BsaWI R130A&R259A (UniProt Q6UQ65 1-272, R130A;R259A).
T4 sequence: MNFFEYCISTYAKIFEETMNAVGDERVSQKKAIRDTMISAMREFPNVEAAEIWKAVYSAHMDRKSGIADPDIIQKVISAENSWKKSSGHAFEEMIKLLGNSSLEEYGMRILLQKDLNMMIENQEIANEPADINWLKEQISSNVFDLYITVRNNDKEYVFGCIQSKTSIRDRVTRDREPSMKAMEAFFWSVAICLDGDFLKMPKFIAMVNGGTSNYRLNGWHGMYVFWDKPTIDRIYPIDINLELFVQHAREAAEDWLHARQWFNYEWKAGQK
Conditions: protein: recombinant; chain copies: 2; label: 33P; blunt.

In series [5] the target is T5, BsaWI E128A (UniProt Q6UQ65 1-272, E128A).
T5 sequence: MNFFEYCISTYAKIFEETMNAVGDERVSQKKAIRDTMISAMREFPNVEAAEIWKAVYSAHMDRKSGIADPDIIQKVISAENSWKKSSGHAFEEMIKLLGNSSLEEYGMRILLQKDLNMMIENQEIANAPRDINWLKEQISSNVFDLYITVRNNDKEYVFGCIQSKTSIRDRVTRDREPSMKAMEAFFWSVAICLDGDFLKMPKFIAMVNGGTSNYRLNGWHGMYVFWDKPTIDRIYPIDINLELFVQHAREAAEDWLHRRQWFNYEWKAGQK
The following applies: protein: recombinant; chain copies: 2; label: 33P; blunt.

B1: SP (dsDNA)
DNA 1: GCCTTTCGGTTTACCGGTGTCATTCCGCTG
DNA 2: CAGCGGAATGACACCGGTAAACCGAAAGGC
As usually defined, the Kd is the equilibrium constant for the complex coming apart. For the molecule B1, the Kd is 2 ± 0.3 nM in series [1]; 17 ± 4.7 nM in series [2]; 2.7 ± 0.8 nM in series [3]; 2.7 ± 0.5 nM in series [4]; 2.19 ± 0.4 nM in series [5].
